Among the data in paper PMC4856418, “Inactive mutants of human pyridoxine 5′‐phosphate oxidase: a possible role for a noncatalytic pyridoxal 5′‐phosphate tight binding site” (FEBS Open Bio, 2016) are Kd values, retold here.

Common to all, as to assay: fluorescence polarisation; 1 μM FMI-labeled hPNPO in a 96-well plate, B6 enzymes added at 0 to 20 μM, incubated at 25 °C for 5 h; excitation 495 nm, emission 535 nm; curves fitted to a simple 1:1 model
Holding throughout (details): both partners purified
In general terms: Fluorescence polarisation rises when a labelled molecule tumbles more slowly, as on binding a larger partner.

Test [1] addresses T1, E. coli serine hydroxymethyltransferase (eSHMT) (E. coli, UniProt P0A825 1-417).
T1 construct: E. coli serine hydroxymethyltransferase; also called E. coli SHMT
T1 sequence (looked up): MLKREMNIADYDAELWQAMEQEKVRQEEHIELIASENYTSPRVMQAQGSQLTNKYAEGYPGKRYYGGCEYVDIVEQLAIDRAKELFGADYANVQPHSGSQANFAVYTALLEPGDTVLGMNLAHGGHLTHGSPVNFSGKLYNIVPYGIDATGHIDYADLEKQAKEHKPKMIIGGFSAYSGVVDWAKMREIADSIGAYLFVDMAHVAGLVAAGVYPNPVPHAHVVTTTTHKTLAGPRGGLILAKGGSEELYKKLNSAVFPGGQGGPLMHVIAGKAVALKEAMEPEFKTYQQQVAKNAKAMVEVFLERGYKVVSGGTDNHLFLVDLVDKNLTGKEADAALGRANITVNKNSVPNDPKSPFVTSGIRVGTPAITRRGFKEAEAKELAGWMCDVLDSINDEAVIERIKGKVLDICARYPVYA

For test [2], the target named is T2, rabbit cytosolic serine hydroxymethyltransferase (rcSHMT) (rabbit, UniProt P07511 1-484).
T2 construct: rabbit cytosolic serine hydroxymethyltransferase; In the PLP transfer experiments the apo form (PLP removed with D-alanine) was used; the fluorescence polarization text names rcSHMT without saying apo or holo; also called apo-rcSHMT; apo-SHMT
T2 sequence (looked up): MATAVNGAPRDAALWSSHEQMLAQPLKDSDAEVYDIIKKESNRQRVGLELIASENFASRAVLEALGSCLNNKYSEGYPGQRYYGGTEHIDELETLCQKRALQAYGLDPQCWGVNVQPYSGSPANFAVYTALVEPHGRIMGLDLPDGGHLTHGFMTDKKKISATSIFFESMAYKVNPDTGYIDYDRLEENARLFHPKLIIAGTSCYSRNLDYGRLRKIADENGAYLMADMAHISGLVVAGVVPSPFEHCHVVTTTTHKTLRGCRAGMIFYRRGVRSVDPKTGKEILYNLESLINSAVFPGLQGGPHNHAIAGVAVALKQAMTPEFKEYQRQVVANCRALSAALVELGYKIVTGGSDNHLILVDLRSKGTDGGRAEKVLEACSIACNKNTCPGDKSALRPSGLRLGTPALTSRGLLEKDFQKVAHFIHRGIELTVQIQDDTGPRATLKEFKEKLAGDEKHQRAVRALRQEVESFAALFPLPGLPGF

The target in test [3] is T3, E. coli L-threonine aldolase (eL-TA) (E. coli, UniProt P75823 1-333).
T3 construct: E. coli L-threonine aldolase
T3 sequence (looked up): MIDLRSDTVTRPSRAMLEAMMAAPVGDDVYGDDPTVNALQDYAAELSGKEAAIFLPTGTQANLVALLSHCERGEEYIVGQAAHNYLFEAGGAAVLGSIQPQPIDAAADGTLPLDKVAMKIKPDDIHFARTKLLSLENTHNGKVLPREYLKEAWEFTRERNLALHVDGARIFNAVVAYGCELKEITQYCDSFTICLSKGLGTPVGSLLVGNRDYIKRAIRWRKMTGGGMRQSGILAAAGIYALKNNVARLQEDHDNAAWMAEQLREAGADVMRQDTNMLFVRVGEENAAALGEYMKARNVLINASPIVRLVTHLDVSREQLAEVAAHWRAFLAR

Test [4] has as its target T4, E. coli aspartate aminotransferase (eAATase) (E. coli, UniProt P00509 1-396).
T4 construct: E. coli aspartate aminotransferase
T4 sequence (looked up): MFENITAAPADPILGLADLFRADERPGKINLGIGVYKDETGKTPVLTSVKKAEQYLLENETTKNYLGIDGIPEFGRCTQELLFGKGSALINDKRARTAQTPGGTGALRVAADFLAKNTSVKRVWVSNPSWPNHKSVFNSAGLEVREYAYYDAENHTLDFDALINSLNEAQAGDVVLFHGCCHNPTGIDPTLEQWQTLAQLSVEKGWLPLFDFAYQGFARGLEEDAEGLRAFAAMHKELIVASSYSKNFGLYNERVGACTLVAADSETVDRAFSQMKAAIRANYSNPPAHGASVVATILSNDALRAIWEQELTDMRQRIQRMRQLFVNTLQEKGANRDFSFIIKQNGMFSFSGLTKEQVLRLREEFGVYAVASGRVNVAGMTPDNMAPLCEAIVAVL

B1: wild-type human pyridoxine 5′-phosphate oxidase (hPNPO) (enzyme)
chain: MTCWLRGVTATFGRPAEWPGYLSHLCGRSAAMDLGPMRKSYRGDREAFEETHLTSLDPVKQFAAWFEEAVQCPDIGEANAMCLATCTRDGKPSARMLLLKGFGKDGFRFFTNFESRKGKELDSNPFASLVFYWEPLNRQVRVEGPVKKLPEEEAECYFHSRPKSSQIGAVVSHQSSVIPDREYLRKKNEELEQLYQDQEVPKPKSWGGYVLYPQVMEFWQGQTNRLHDRIVFRRGLPTGDSPLGPMTHRGEEDWLYERLAP
modifications: labelled with fluorescein 5-maleimide (FMI) in the fluorescence polarization assay; labelled residues not stated
notes: human pyridoxine 5′-phosphate oxidase, wild type; FMI-labelled in the fluorescence polarization assay; also called FMI-labeled hPNPO; FMI-tagged hPNPO
As for B1, the Kd in test [1] stood at 1700 nM; in test [2], 800 nM; in test [3], 12300 nM; in test [4] it was 300 nM.

One may read the Kd as the concentration at which binding is half-saturated. A lower Kd goes with tighter binding.
